Measured values: paper doi:10.1101/2023.10.23.563616
Blank lines part the entries; values can stand above or below the substance they belong to.

Experiments:
[1] = biological target: His-tagged TclI N-terminal domain (residues 1-85) (M. caseolyticus)
[2] = biological target: a tagged version of TclJ or TclN; experiment: pull-down; nickel copurification: TclI, TclJ and TclN all co-expressed in E. coli, one of them His6-tagged; lysate on Ni-NTA agarose beads, 4°C, 50 mM HEPES pH 7.8, 300 mM NaCl, 60 mM imidazole; SDS-PAGE with Coomassie stain
[3] = biological target: N-terminally His-tagged TclI (M. caseolyticus); experiment: SEC; purified TclIJN complex (TclI, TclJ and TclN as a mixture); Yarra 1.8 μm X150 column, 100 mM sodium phosphate pH 6.8, 0.023% NaN3, 25 °C, 1 μg/μL

percentage of TclE peptides fully modified (six thiazoles) by LC-MS after co-expression of GST-TclE Δ18 with TclI, TclJ and TclN in E. coli [1]: 71.6%
Substance: GST-TclE Δ18 leader truncation (peptide)

stoichiometry N (TclI per tagged enzyme (densitometry)) [2]: 2 to 8
Substance: TclI (untagged) (natural protein)

stoichiometry N (TclI per TclJ) [3]: 2
Substance: TclJ (untagged) (enzyme)

stoichiometry N (TclI per TclN) [3]: 2
Substance: TclN (untagged) (enzyme)
